For the test, the target named is T1, Archaeoglobus fulgidus PCNA (Archaeoglobus fulgidus, UniProt O29912).
T1 sequence: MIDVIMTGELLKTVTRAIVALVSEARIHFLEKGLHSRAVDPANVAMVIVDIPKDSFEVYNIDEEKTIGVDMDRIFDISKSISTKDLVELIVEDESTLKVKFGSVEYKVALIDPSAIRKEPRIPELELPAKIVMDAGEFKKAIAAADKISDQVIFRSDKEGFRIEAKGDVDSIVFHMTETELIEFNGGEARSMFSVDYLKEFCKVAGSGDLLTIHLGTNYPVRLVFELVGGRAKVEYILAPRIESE
Nature of the test: pull-down.

B1: GST-RNase HII hinge deletion mutant (ΔSNLR) (enzyme)
chain: MKAGIDEAGKGCVIGPLVVAGVACSDEDRLRKLGVKDSKKLSQGRREELAEEIRKICRTEVLKVSPENLDERMAAKTINEILKECYAEIILRLKPEIAYVDSPDVIPERLSRELEEITGLRVVAEHKADEKYPLVAAASIIAKVEREREIERLKEKFGDFGSGYASDPRTREVLKEWIASGRIPSCVRMRWKTVQKTLDDF
Turning to B1, the binding result is reported as “binds”.

These data come from PMC3089482 (Nucleic Acids Research, 2011).
